The source of these data is US20210040193A1 (BEIJING HANMI PHARMACEUTICAL, published 2021).

Assay [1] deals with T1, Recombinant human PD-1 (Beijing Sino Biological Inc., Catalog No. 10377-H08H) (human, UniProt Q15116 25-167).
T1 construct: Bought recombinant protein
Put plainly: ELISA, human PD-1 coated on the plate, anti-human IgG-HRP detection.

The target in assay [2] is T1, Recombinant human PD-1 (Beijing Sino …). Description: ELISA, human PD-1 coated on the plate, anti-human IgG-HRP detection; control.

T1 sequence (Q15116 25-167 limits assumed): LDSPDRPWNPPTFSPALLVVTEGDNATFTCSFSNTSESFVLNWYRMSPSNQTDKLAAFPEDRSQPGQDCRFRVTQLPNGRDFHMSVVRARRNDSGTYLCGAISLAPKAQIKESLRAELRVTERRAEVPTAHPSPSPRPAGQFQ

B1: anti-PD-1 (Pembro)/VEGF (G631) heterodimeric antibody (bispecific antibody, human IgG1, kappa, N297A)
heavy 1: QVQLVQSGVEVKKPGASVKVSCKASGYTFTNYYMYWVRQAPGQGLEWMGGINPSNGGTNFNEKFKNRVTLTTDSSTTTAYMELKSLQFDDTAVYYCARRDYRFDMGFDYWGQGTTVTVSSASTKGPSVFPLAPSSKSTSGGTAALGCLVKDYFPEPVTVSWNSGALTSGVHTFPAVLQSSGLYSLSSVVTVPSSSLGTQTYICNVNHKPSNTKVDKKVEPKSCDKTHTCPPCPAPELLGGPSVFLFPPKPKDTLMISRTPEVTCVVVDVSHEDPEVKFNWYVDGVEVHNAKTKPREEQYASTYRVVSVLTVLHQDWLNGKEYKCKVSNKALPAPIEKTISKAKGQPREPQVYTLPPSRDELTKNQVSLLCLVKGFYPSDIAVEWESNGQPENNYKTTPPVLRSDGSFFLYSKLTVDKSRWQQGNVFSCSVMHEALHNHYTQKSLSLSPGK
light 1: EIVLTQSPATLSLSPGERATLSCRASKGVSTSGYSYLHWYQQKPGQAPRLLIYLASYLESGVPARFSGSGSGTDFTLTISSLEPEDFAVYYCQHSRDLPLTFGGGTKVEIKRTVAAPSVFIFPPSDEQLKSGTASVVCLLNNFYPREAKVQWKVDNALQSGNSQESVTEQDSKDSTYSLSSTLTLSKADYEKHKVYACEVTHQGLSSPVTKSFNRGEC
heavy 2: EVQLVESGGGLVQPGGSLRLSCAASGFTISDYWIHWVRQAPGKGLEWVAGITPAGGYTYYADSVKGRFTISADTSKNTAYLQMNSLRAEDTAVYYCARFVFFLPYAMDYWGQGTLVTVSSASTKGPSVFPLAPSSKSTSGGTAALGCLVKDYFPEPVTVSWNSGALTSGVHTFPAVLQSSGLYSLSSVVTVPSSSLGTQTYICNVNHKPSNTKVDKKVEPKSCDKTHTCPPCPAPELLGGPSVFLFPPKPKDTLMISRTPEVTCVVVDVSHEDPEVKFNWYVDGVEVHNAKTKPREEQYASTYRVVSVLTVLHQDWLNGKEYKCKVSNKALPAPIEKTISKAKGQPREPQVYTEPPSRDELTKNQVSLTCLVKGFYPSDIAVEWESNGQPENNYKTTPPVLDSDGSFFLLSVLTVDKSRWQQGNVFSCSVMHEALHNHYTQKSLSLSPGK
light 2: not shown
notes: Heterodimer of two half antibodies; it is not spelled out for this molecule; also called anti-PD-1 (Pembro)/VEGF (G631) heterodimer antibody
For B1, the binding result in assay [1] is given as “binds”.

B2: anti-PD-1 (BJHM)/VEGF (G631) heterodimeric antibody (bispecific antibody, human IgG1, kappa, N297A)
heavy 1: EVNLVESGGGLVQPGGSLRLSCAASGFTFSSYGMSWVRQAPGKGLEWVASISGGGRYTYYPDSMKGRFTISRDNSKNNLYLQMNSLRAEDTAVYYCVYEYFYTMDYWGQGTLVTVSSASTKGPSVFPLAPSSKSTSGGTAALGCLVKDYFPEPVTVSWNSGALTSGVHTFPAVLQSSGLYSLSSVVTVPSSSLGTQTYICNVNHKPSNTKVDKKVEPKSCDKTHTCPPCPAPELLGGPSVFLFPPKPKDTLMISRTPEVTCVVVDVSHEDPEVKFNWYVDGVEVHNAKTKPREEQYASTYRVVSVLTVLHQDWLNGKEYKCKVSNKALPAPIEKTISKAKGQPREPQVYTLPPSRDELTKNQVSLLCLVKGFYPSDIAVEWESNGQPENNYKTTPPVLRSDGSFFLYSKLTVDKSRWQQGNVFSCSVMHEALHNHYTQKSLSLSPGK
light 1: DIVLTQSPATLSLSPGERATLSCRASQSISNNLHWYQQKPGQAPRLLIRFASQSISGIPARFSGSGSGTDFTLTISSLEPEDFAVYFCQQSDNWPLTFGGGTKVEIKRTVAAPSVFIFPPSDEQLKSGTASVVCLLNNFYPREAKVQWKVDNALQSGNSQESVTEQDSKDSTYSLSSTLTLSKADYEKHKVYACEVTHQGLSSPVTKSFNRGEC
heavy 2: EVQLVESGGGLVQPGGSLRLSCAASGFTISDYWIHWVRQAPGKGLEWVAGITPAGGYTYYADSVKGRFTISADTSKNTAYLQMNSLRAEDTAVYYCARFVFFLPYAMDYWGQGTLVTVSSASTKGPSVFPLAPSSKSTSGGTAALGCLVKDYFPEPVTVSWNSGALTSGVHTFPAVLQSSGLYSLSSVVTVPSSSLGTQTYICNVNHKPSNTKVDKKVEPKSCDKTHTCPPCPAPELLGGPSVFLFPPKPKDTLMISRTPEVTCVVVDVSHEDPEVKFNWYVDGVEVHNAKTKPREEQYASTYRVVSVLTVLHQDWLNGKEYKCKVSNKALPAPIEKTISKAKGQPREPQVYTEPPSRDELTKNQVSLTCLVKGFYPSDIAVEWESNGQPENNYKTTPPVLDSDGSFFLLSVLTVDKSRWQQGNVFSCSVMHEALHNHYTQKSLSLSPGK
light 2: not shown
Take B2: the binding result in assay [1] is “binds”.

B3: PD-1 (BJHM) monoclonal antibody (antibody, V domains shown)
VH: EVNLVESGGGLVQPGGSLRLSCAASGFTFSSYGMSWVRQAPGKGLEWVASISGGGRYTYYPDSMKGRFTISRDNSKNNLYLQMNSLRAEDTAVYYCVYEYFYTMDYWGQGTLVTVSS
VL: DIVLTQSPATLSLSPGERATLSCRASQSISNNLHWYQQKPGQAPRLLIRFASQSISGIPARFSGSGSGTDFTLTISSLEPEDFAVYFCQQSDNWPLTFGGGTKVEIK
notes: Control monoclonal antibody; also called anti-human PD-1 antibody PD-1(BJHM)
Consider B3, for which the binding result in assay [2] is reported as “binds”.

B4: anti PD-1(BJHM)/VEGF(Bevaci) heterodimeric antibody (bispecific antibody, human IgG1, kappa, N297A)
heavy 1: EVNLVESGGGLVQPGGSLRLSCAASGFTFSSYGMSWVRQAPGKGLEWVASISGGGRYTYYPDSMKGRFTISRDNSKNNLYLQMNSLRAEDTAVYYCVYEYFYTMDYWGQGTLVTVSSASTKGPSVFPLAPSSKSTSGGTAALGCLVKDYFPEPVTVSWNSGALTSGVHTFPAVLQSSGLYSLSSVVTVPSSSLGTQTYICNVNHKPSNTKVDKKVEPKSCDKTHTCPPCPAPELLGGPSVFLFPPKPKDTLMISRTPEVTCVVVDVSHEDPEVKFNWYVDGVEVHNAKTKPREEQYASTYRVVSVLTVLHQDWLNGKEYKCKVSNKALPAPIEKTISKAKGQPREPQVYTLPPSRDELTKNQVSLLCLVKGFYPSDIAVEWESNGQPENNYKTTPPVLRSDGSFFLYSKLTVDKSRWQQGNVFSCSVMHEALHNHYTQKSLSLSPGK
light 1: DIVLTQSPATLSLSPGERATLSCRASQSISNNLHWYQQKPGQAPRLLIRFASQSISGIPARFSGSGSGTDFTLTISSLEPEDFAVYFCQQSDNWPLTFGGGTKVEIKRTVAAPSVFIFPPSDEQLKSGTASVVCLLNNFYPREAKVQWKVDNALQSGNSQESVTEQDSKDSTYSLSSTLTLSKADYEKHKVYACEVTHQGLSSPVTKSFNRGEC
heavy 2: EVQLVESGGGLVQPGGSLRLSCAASGYTFTNYGMNWVRQAPGKGLEWVGWINTYTGEPTYAADFKRRFTFSLDTSKSTAYLQMNSLRAEDTAVYYCAKYPHYYGSSHWYFDVWGQGTLVTVSSASTKGPSVFPLAPSSKSTSGGTAALGCLVKDYFPEPVTVSWNSGALTSGVHTFPAVLQSSGLYSLSSVVTVPSSSLGTQTYICNVNHKPSNTKVDKKVEPKSCDKTHTCPPCPAPELLGGPSVFLFPPKPKDTLMISRTPEVTCVVVDVSHEDPEVKFNWYVDGVEVHNAKTKPREEQYASTYRVVSVLTVLHQDWLNGKEYKCKVSNKALPAPIEKTISKAKGQPREPQVYTEPPSRDELTKNQVSLTCLVKGFYPSDIAVEWESNGQPENNYKTTPPVLDSDGSFFLLSVLTVDKSRWQQGNVFSCSVMHEALHNHYTQKSLSLSPGK
light 2: not shown
On to B4, for which the binding result in assay [1] is “binds”.
